B1: Kv5.1 (natural protein)
chain: MDASAEQSLPEPGSQDSVAGEDIEIVVNVGGVRQVLYGDLLSQYPETRLAELINCLAGGYDTIFSLCDDYDPGKREFYFDRDPDAFKCVIEVYYFGEVHMKKGICPICFKNEMDFWKVDLKFLDDCCKSHLSEKREELEEIARRVQLILDDLGVDAAEGRWRRCQKCVWKFLEKPESSCPARVVAVLSFLLILVSSVVMCMGTIPELQVVDSEGNRVEHPTLENVETACIGWFTLEYLLRLFSSPNKLHFALSFMNIVDVLAILPFYVSLTLTHLGARMMELTNVQQAVQALRIMRIARIFKLARHSSGLQTLTYALKRSFKELGLLLMYLAVGIFVFSALGYTMEQSHPETLFKSIPQSFWWAIITMTTVGYGDIYPKTTLGKLNAAISFLCGVIAIALPIHPIINNFVRYYNKQRVLETAAKHELELMELNSSSAEGKPGGSRSDLDTLPPEPAAREGPSWGSRLKLSHSDTFIPLLTEEKHHRTRLQSCK
B2: Kv2.2 (natural protein)
chain: MAEKAPPGLNRKTSRSTLSLPPEPVDIIRSKTCSRRVKINVGGLNHEVLWRTLDRLPRTRLGKLRDCNTHESLLEVCDDYNLNENEYFFDRHPGAFTSILNFYRTGKLHMMEEMCALSFGQELDYWGIDEIYLESCCQARYHQKKEQMNEELRREAETMREREGEEFDNTCCPEKRKKLWDLLEKPNSSVAAKILAIVSILFIVLSTIALSLNTLPELQENDEFGQPSDNRKLAHVEAVCIAWFTMEYLLRFLSSPNKWKFFKGPLNVIDLLAILPYYVTIFLTESNKSVLQFQNVRRVVQIFRIMRILRILKLARHSTGLQSLGFTLRRSYNELGLLILFLAMGIMIFSSLVFFAEKDEDATKFTSIPASFWWATITMTTVGYGDIYPKTLLGKIVGGLCCIAGVLVIALPIPIIVNNFSEFYKEQKRQEKAIKRREALERAKRNGSIVSMNLKDAFARSMELIDVAVEKAGESANTKDSVDDNHLSPSRWKWARKALSETSSNKSYENKYQEVSQNDSHEHLNNTSSSSPQHLSAQKLEMLYNEITKTQPHSHPNPDCQEQPERPCVYEEEIEMEEVICPQEQLAVAQTEVIVDMKSTSSIDSFTSCATDFTETERSPLPPPSASHLQMKFPTDLPGTDEHQRARAPPFLTLSRDKGPAAREAAVDYAPIDITVNLDAGASHGPLQPDSASDSPKSSLKGSNPLKSRSLKVNFQENRASAPQTPPSTARPLPVTTADFPLTTPQHMSTILLEEALPQGQPPLLEADDSAHCQGPSKGFSPRFPKQKLFPFSSRERRSFTEIDTGEDEDFLDLQRSRPDKQADPSPNCLADKPGDARDSLREEGCVGSSSPQNTDHNCRQDIYQAVGEVKKDSSQEGYKMENHLFAPEIHSNPGDTGHCPTRETSM

In the test “Kv2.2” the target is B2. In words: co-IP.
The target in the test “Kv5.1” is B1. In words: co-IP.

B1: the “percent co-IPed, relative to the subunit's own IP” value with Kv2.2 stood at 31%.
With B2, in the test with Kv5.1, the “percent co-IPed, relative to the subunit's own IP” value is 7.4%.

The record behind these values is publication PMC10849721 (bioRxiv, 2024).
